Values of other authors, collected in publication PMC10103170.

Target: Ubiquitin (Homo sapiens) (UniProt P0CG48)

Chain of ALIX V domain (Q8WUM4 360-702): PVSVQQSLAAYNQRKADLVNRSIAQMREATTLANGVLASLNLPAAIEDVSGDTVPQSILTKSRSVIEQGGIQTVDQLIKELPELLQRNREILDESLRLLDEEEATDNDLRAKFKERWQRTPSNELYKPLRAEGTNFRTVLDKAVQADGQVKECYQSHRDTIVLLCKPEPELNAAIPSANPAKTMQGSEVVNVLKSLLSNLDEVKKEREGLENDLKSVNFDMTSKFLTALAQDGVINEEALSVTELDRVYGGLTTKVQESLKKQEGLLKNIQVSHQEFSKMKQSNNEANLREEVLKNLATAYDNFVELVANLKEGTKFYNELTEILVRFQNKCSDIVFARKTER

Kd: 120 µM
Substance: ALIX V domain (from UniProt Q8WUM4)
